Laboratory results taken from US20070078092A1 (CUREGENICS, published 2007).
Square brackets hold non-standard residues; d marks the D form. * marks the point of attachment. Cholesteryloxycarbonyl = CC(C)CCC[C@@H](C)[C@H]1CC[C@H]2[C@@H]3CC=C4C[C@@H](OC(=O)*)CC[C@]4(C)[C@H]3CC[C@]12C; hLeu = CC(C)CC[C@H](N)C(=O)O; Nva = CCC[C@H](N)C(=O)O; Dap = NC[C@H](N)C(=O)O

B1: PTR 6334 (peptide)
peptide: Cholesteryloxycarbonyl-GGGGGRPR[Nva]Y[Dap][hLeu]-NH2
SMILES: CCC[C@H](NC(=O)[C@H](CCCNC(=N)N)NC(=O)[C@@H]1CCCN1C(=O)[C@H](CCCNC(=N)N)NC(=O)CNC(=O)CNC(=O)CNC(=O)CNC(=O)CNC(=O)O[C@H]1CC[C@@]2(C)C(=CC[C@H]3[C@@H]4CC[C@H]([C@H](C)CCCC(C)C)[C@@]4(C)CC[C@@H]32)C1)C(=O)N[C@@H](Cc1ccc(O)cc1)C(=O)N[C@@H](CN)C(=O)N[C@@H](CCC(C)C)C(N)=O
B2: PTR 6328 (peptide)
peptide: Cholesteryloxycarbonyl-GGRPR[Nva]Y[Dap][hLeu]-NH2
SMILES: CCC[C@H](NC(=O)[C@H](CCCNC(=N)N)NC(=O)[C@@H]1CCCN1C(=O)[C@H](CCCNC(=N)N)NC(=O)CNC(=O)CNC(=O)O[C@H]1CC[C@@]2(C)C(=CC[C@H]3[C@@H]4CC[C@H]([C@H](C)CCCC(C)C)[C@@]4(C)CC[C@@H]32)C1)C(=O)N[C@@H](Cc1ccc(O)cc1)C(=O)N[C@@H](CN)C(=O)N[C@@H](CCC(C)C)C(N)=O
B3: PTR 6326 (peptide)
peptide: Cholesteryloxycarbonyl-[dK][dK][dK][dK][dK][dK]RPR[Nva]Y[Dap][hLeu]-NH2
SMILES: CCC[C@H](NC(=O)[C@H](CCCNC(=N)N)NC(=O)[C@@H]1CCCN1C(=O)[C@H](CCCNC(=N)N)NC(=O)[C@@H](CCCCN)NC(=O)[C@@H](CCCCN)NC(=O)[C@@H](CCCCN)NC(=O)[C@@H](CCCCN)NC(=O)[C@@H](CCCCN)NC(=O)[C@@H](CCCCN)NC(=O)O[C@H]1CC[C@@]2(C)C(=CC[C@H]3[C@@H]4CC[C@H]([C@H](C)CCCC(C)C)[C@@]4(C)CC[C@@H]32)C1)C(=O)N[C@@H](Cc1ccc(O)cc1)C(=O)N[C@@H](CN)C(=O)N[C@@H](CCC(C)C)C(N)=O
B4: PTR 6324 (peptide)
peptide: Cholesteryloxycarbonyl-[dK][dK][dK][dK][dK]RPR[Nva]Y[Dap][hLeu]-NH2
SMILES: CCC[C@H](NC(=O)[C@H](CCCNC(=N)N)NC(=O)[C@@H]1CCCN1C(=O)[C@H](CCCNC(=N)N)NC(=O)[C@@H](CCCCN)NC(=O)[C@@H](CCCCN)NC(=O)[C@@H](CCCCN)NC(=O)[C@@H](CCCCN)NC(=O)[C@@H](CCCCN)NC(=O)O[C@H]1CC[C@@]2(C)C(=CC[C@H]3[C@@H]4CC[C@H]([C@H](C)CCCC(C)C)[C@@]4(C)CC[C@@H]32)C1)C(=O)N[C@@H](Cc1ccc(O)cc1)C(=O)N[C@@H](CN)C(=O)N[C@@H](CCC(C)C)C(N)=O
B5: PTR 6332 (peptide)
peptide: Cholesteryloxycarbonyl-GGGGRPR[Nva]Y[Dap][hLeu]-NH2
SMILES: CCC[C@H](NC(=O)[C@H](CCCNC(=N)N)NC(=O)[C@@H]1CCCN1C(=O)[C@H](CCCNC(=N)N)NC(=O)CNC(=O)CNC(=O)CNC(=O)CNC(=O)O[C@H]1CC[C@@]2(C)C(=CC[C@H]3[C@@H]4CC[C@H]([C@H](C)CCCC(C)C)[C@@]4(C)CC[C@@H]32)C1)C(=O)N[C@@H](Cc1ccc(O)cc1)C(=O)N[C@@H](CN)C(=O)N[C@@H](CCC(C)C)C(N)=O
B6: PTR 6330 (peptide)
peptide: Cholesteryloxycarbonyl-GGGRPR[Nva]Y[Dap][hLeu]-NH2
SMILES: CCC[C@H](NC(=O)[C@H](CCCNC(=N)N)NC(=O)[C@@H]1CCCN1C(=O)[C@H](CCCNC(=N)N)NC(=O)CNC(=O)CNC(=O)CNC(=O)O[C@H]1CC[C@@]2(C)C(=CC[C@H]3[C@@H]4CC[C@H]([C@H](C)CCCC(C)C)[C@@]4(C)CC[C@@H]32)C1)C(=O)N[C@@H](Cc1ccc(O)cc1)C(=O)N[C@@H](CN)C(=O)N[C@@H](CCC(C)C)C(N)=O

The binders below were run against protein kinase B (PKB) (assay: cell-based or functional assay).
In the case of B1, the “IC50, in vitro kinase assay PKB” value is reported as 1 µM.
For B2, the “IC50, in vitro kinase assay PKB” value was 1 µM.
In the case of B3, the “IC50, in vitro kinase assay PKB” value is reported as 0.1 µM.
For B4, the “IC50, in vitro kinase assay PKB” value was 0.1 µM.
B5 was tested, and the “IC50, in vitro kinase assay PKB” value was 1 µM.
For B6, the “IC50, in vitro kinase assay PKB” value was 1 µM.
